Measured values reported in paper doi:10.1101/2025.05.21.655409.

Assays:
[1] = target: Xenopus laevis histone H3 labelled with Oregon Green 488 at C110 (Xenopus laevis) (UniProt P84233); test: fluorescence polarisation; fluorescence anisotropy; 5 nM OG488-labeled histone, ligase complex titrated; 20 mM Tris-HCl, 10 mM NaCl, 5% glycerol, 1 mM DTT; BSA-coated 96-well plates, 25 °C, 1.5-2.5 h
[2] = target: Xenopus laevis histone H4 V22C labelled with Oregon Green 488 (Xenopus laevis) (UniProt P62799); test: as above

Substance: NEDD8-ASB9-ELOB/C-CUL5-RBX2 (NEDD8-ASB9-CRL) (from UniProt Q96DX5 1-294; Q15370 1-118; Q15369 1-112; Q93034 1-780; Q9UBF6 1-113; Q15843 1-76) (complex)
- Kd [1]: 78.2 nM
- Kd [2]: 48.4 nM

Substance: ASB9-ELOB/C-CUL5-RBX2 (ASB9-CRL), not neddylated (from UniProt Q96DX5 1-294; Q15370 1-118; Q15369 1-112; Q93034 1-780; Q9UBF6 1-113) (complex)
- Kd [1]: 187 nM
- Kd [2]: 79.7 nM

Substance: CUL5-RBX2 (from UniProt Q93034 1-780; Q9UBF6 1-113) (complex)
- fold lower affinity than ASB9-CRL [1]: 2 fold
- fold lower affinity than NEDD8-ASB9-CRL [1]: 4 fold
- fold lower affinity than ASB9-CRL [2]: 2 fold
- fold lower affinity than NEDD8-ASB9-CRL [2]: 4 fold
